Data taken from article PMC6598307, “Directed evolution of a genetically encoded immobilized lipase for the efficient production of biodiesel from waste cooking oil” (Biotechnology for Biofuels, 2019).

Substrate: CCCCCCCCCCCCCCCC(=O)Oc1ccc([N+](=O)[O-])cc1
Test: purified protein
Assay type: biochemical, Proteus mirabilis
Conditions: soluble free enzyme, 0.1 M NaH2PO4 pH 7.0, 25 °C, 1 nM enzyme, pNPP 0-2.25 mM, pNPP stock in MeCN:Triton X-100 1:1

B1: Proteus mirabilis lipase (PML), soluble (Proteus mirabilis HI4320) (protein)
chain: MSTKYPIVLVHGLAGFNEIVGFPYFYGIADALRQDGHQVFTASLSAFNSNEVRGKQLWQFVQTLLQETQAKKVNFIGHSQGPLACRYVAANYPDSVASVTSINGVNHGSEIADLYRRIMRKDSIPEYIVEKVLNAFGTIISTFSGHRGDPQDAIAALESLTTEQVTEFNNKYPQALPKTPGGEGDEIVNGVHYYCFGSYIQGLIAGEKGNLLDPTHAAMRVLNTFFTEKQNDGLVGRSSMRLGKLIKDDYAQDHIDMVNQVAGLVGYNEDIVAIYTQHAKYLASKQL
notes: full-length PML gene in pET28b (NdeI/XhoI), N-terminal His-tag; no signal peptide needed; E. coli BL21(DE3)
Km: 1770 ± 330 µM
kcat: 112 ± 12 s⁻¹
kcat/Km: 63200 ± 210 M⁻¹ s⁻¹
